Measurements published in the supplement of paper PMC9112550, “Optimization of the antimicrobial peptide Bac7 by deep mutational scanning” (BMC Biology, 2022).

Test system: Escherichia coli TOP10
Test: shrunken log2 fold change of peptide-encoding DNA abundance (4.5 h post-induction vs induction); higher = less antimicrobial activity (less host growth inhibition)
Settings: time post-induction: 4.5 h; library: site-saturation at positions 5, 18, 19, 20
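Further: peptides expressed intracellularly from a pBAD plasmid library in pooled LB shake-flask culture, induced with 0.3% L-arabinose, DNA abundance read by NGS, three biological replicates, DESeq2 with apeglm shrinkage.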

Row | Sequence | shrunken log2 fold change
1 | RRIRERPPRLPRPRPRPLHNPRP | -0.388
2 | RRIRERPPRLPRPRPRPLHSPRP | -0.0649
3 | RRIRERPPRLPRPRPRPLIEPRP | -0.287
4 | RRIRERPPRLPRPRPRPLKPPRP | -0.16
5 | RRIRERPPRLPRPRPRPLKVPRP | -0.0726
6 | RRIRERPPRLPRPRPRPLKYPRP | -0.38
7 | RRIRERPPRLPRPRPRPLMCPRP | -0.267
8 | RRIRERPPRLPRPRPRPLMEPRP | 0.0296
9 | RRIRERPPRLPRPRPRPLMFPRP | -0.32
10 | RRIRERPPRLPRPRPRPLQLPRP | -0.33
11 | RRIRERPPRLPRPRPRPLQRPRP | -0.131
12 | RRIRERPPRLPRPRPRPLQVPRP | -0.384
13 | RRIRERPPRLPRPRPRPLRVPRP | 0.269
14 | RRIRERPPRLPRPRPRPLSVPRP | -0.642
15 | RRIRERPPRLPRPRPRPLTFPRP | -0.693
16 | RRIRERPPRLPRPRPRPLTKPRP | -0.0153
17 | RRIRERPPRLPRPRPRPLVEPRP | -0.229
18 | RRIRERPPRLPRPRPRPLVTPRP | 0.503
19 | RRIRERPPRLPRPRPRPMAEPRP | 0.0131
20 | RRIRERPPRLPRPRPRPMEYPRP | -0.00776
21 | RRIRERPPRLPRPRPRPMFDPRP | -0.121
22 | RRIRERPPRLPRPRPRPMFVPRP | -0.285
23 | RRIRERPPRLPRPRPRPMIDPRP | -0.28
24 | RRIRERPPRLPRPRPRPMIGPRP | 0.015
25 | RRIRERPPRLPRPRPRPMIIPRP | -0.317

Row | Sequence | shrunken log2 fold change
26 | RRIRERPPRLPRPRPRPMKAPRP | -0.00245
27 | RRIRERPPRLPRPRPRPMKFPRP | -0.0657
28 | RRIRERPPRLPRPRPRPMLRPRP | -0.0352
29 | RRIRERPPRLPRPRPRPMLYPRP | -0.222
30 | RRIRERPPRLPRPRPRPMNAPRP | -0.259
31 | RRIRERPPRLPRPRPRPMNEPRP | -0.0835
32 | RRIRERPPRLPRPRPRPMPMPRP | -0.0464
33 | RRIRERPPRLPRPRPRPMQVPRP | -0.32
34 | RRIRERPPRLPRPRPRPMQYPRP | -0.271
35 | RRIRERPPRLPRPRPRPMRVPRP | 0.501
36 | RRIRERPPRLPRPRPRPMSCPRP | -0.206
37 | RRIRERPPRLPRPRPRPMSEPRP | 0.0552
38 | RRIRERPPRLPRPRPRPMSNPRP | -0.16
39 | RRIRERPPRLPRPRPRPMSSPRP | -0.000155
40 | RRIRERPPRLPRPRPRPMTGPRP | -0.0422
41 | RRIRERPPRLPRPRPRPMVAPRP | 0.138
42 | RRIRERPPRLPRPRPRPMVQPRP | 0.00276
43 | RRIRERPPRLPRPRPRPMVRPRP | -0.019
44 | RRIRERPPRLPRPRPRPNASPRP | -0.0996
45 | RRIRERPPRLPRPRPRPNAVPRP | -0.407
46 | RRIRERPPRLPRPRPRPNCGPRP | -0.26
47 | RRIRERPPRLPRPRPRPNCLPRP | -0.297
48 | RRIRERPPRLPRPRPRPNDWPRP | -0.133
49 | RRIRERPPRLPRPRPRPNEHPRP | -0.445
50 | RRIRERPPRLPRPRPRPNFIPRP | -0.442

Row | Sequence | shrunken log2 fold change
51 | RRIRERPPRLPRPRPRPNGFPRP | 0.0354
52 | RRIRERPPRLPRPRPRPNHEPRP | 0.0522
53 | RRIRERPPRLPRPRPRPNKAPRP | 0.12
54 | RRIRERPPRLPRPRPRPNKCPRP | -0.522
55 | RRIRERPPRLPRPRPRPNKFPRP | -0.143
56 | RRIRERPPRLPRPRPRPNLDPRP | -0.289
57 | RRIRERPPRLPRPRPRPNLSPRP | -0.15
58 | RRIRERPPRLPRPRPRPNNIPRP | -0.787
59 | RRIRERPPRLPRPRPRPNPMPRP | -0.211
60 | RRIRERPPRLPRPRPRPNPYPRP | -0.304
61 | RRIRERPPRLPRPRPRPNQTPRP | -0.13
62 | RRIRERPPRLPRPRPRPNRCPRP | -0.00988
63 | RRIRERPPRLPRPRPRPNRKPRP | -0.0495
64 | RRIRERPPRLPRPRPRPNRMPRP | -1.36
65 | RRIRERPPRLPRPRPRPNSLPRP | 0.0427
66 | RRIRERPPRLPRPRPRPNTIPRP | -0.45
67 | RRIRERPPRLPRPRPRPNVPPRP | -0.0158
68 | RRIRERPPRLPRPRPRPNWHPRP | -0.185
69 | RRIRERPPRLPRPRPRPNYKPRP | -0.722
70 | RRIRERPPRLPRPRPRPPAGPRP | 0.589
71 | RRIRERPPRLPRPRPRPPDWPRP | 0.674
72 | RRIRERPPRLPRPRPRPPEFPRP | 0.127
73 | RRIRERPPRLPRPRPRPPENPRP | 0.222
74 | RRIRERPPRLPRPRPRPPERPRP | 0.366
75 | RRIRERPPRLPRPRPRPPGFPRP | 0.479

Row | Sequence | shrunken log2 fold change
76 | RRIRERPPRLPRPRPRPPHKPRP | 0.0221
77 | RRIRERPPRLPRPRPRPPHNPRP | 0.637
78 | RRIRERPPRLPRPRPRPPITPRP | -0.351
79 | RRIRERPPRLPRPRPRPPKKPRP | 0.0812
80 | RRIRERPPRLPRPRPRPPLLPRP | -0.0533
81 | RRIRERPPRLPRPRPRPPLYPRP | 0.127
82 | RRIRERPPRLPRPRPRPPNCPRP | -0.019
83 | RRIRERPPRLPRPRPRPPPPPRP | 0.646
84 | RRIRERPPRLPRPRPRPPPQPRP | 0.553
85 | RRIRERPPRLPRPRPRPPQCPRP | -0.302
86 | RRIRERPPRLPRPRPRPPSKPRP | -0.197
87 | RRIRERPPRLPRPRPRPPSNPRP | -0.208
88 | RRIRERPPRLPRPRPRPPSWPRP | -0.2
89 | RRIRERPPRLPRPRPRPPTMPRP | -0.151
90 | RRIRERPPRLPRPRPRPPWEPRP | 0.145
91 | RRIRERPPRLPRPRPRPQCEPRP | -0.0239
92 | RRIRERPPRLPRPRPRPQDCPRP | 0.015
93 | RRIRERPPRLPRPRPRPQFHPRP | -0.629
94 | RRIRERPPRLPRPRPRPQFMPRP | 0.0848
95 | RRIRERPPRLPRPRPRPQHMPRP | -0.735
96 | RRIRERPPRLPRPRPRPQHTPRP | -0.32
97 | RRIRERPPRLPRPRPRPQIDPRP | -0.046
98 | RRIRERPPRLPRPRPRPQIEPRP | -0.208
99 | RRIRERPPRLPRPRPRPQLAPRP | 0.00697
100 | RRIRERPPRLPRPRPRPQLPPRP | 0.021

Row | Sequence | shrunken log2 fold change
101 | RRIRERPPRLPRPRPRPQLQPRP | -0.0648
102 | RRIRERPPRLPRPRPRPQLRPRP | -0.00323
103 | RRIRERPPRLPRPRPRPQLYPRP | -0.441
104 | RRIRERPPRLPRPRPRPQMDPRP | 0.178
105 | RRIRERPPRLPRPRPRPQNAPRP | 0.0619
106 | RRIRERPPRLPRPRPRPQNEPRP | -0.581
107 | RRIRERPPRLPRPRPRPQQTPRP | -0.0895
108 | RRIRERPPRLPRPRPRPQREPRP | 0.0255
109 | RRIRERPPRLPRPRPRPQTAPRP | -0.0922
110 | RRIRERPPRLPRPRPRPQTSPRP | -0.37
111 | RRIRERPPRLPRPRPRPQVKPRP | -0.2
112 | RRIRERPPRLPRPRPRPQVMPRP | -0.303
113 | RRIRERPPRLPRPRPRPQWCPRP | -0.262
114 | RRIRERPPRLPRPRPRPQWSPRP | 0.0836
115 | RRIRERPPRLPRPRPRPRAPPRP | 0.524
116 | RRIRERPPRLPRPRPRPRCFPRP | -0.128
117 | RRIRERPPRLPRPRPRPRFSPRP | -0.0175
118 | RRIRERPPRLPRPRPRPRHHPRP | -0.0796
119 | RRIRERPPRLPRPRPRPRHVPRP | 0.0784
120 | RRIRERPPRLPRPRPRPRILPRP | -0.202
121 | RRIRERPPRLPRPRPRPRKIPRP | 0.0442
122 | RRIRERPPRLPRPRPRPRLPPRP | 0.35
123 | RRIRERPPRLPRPRPRPRLSPRP | 0.134
124 | RRIRERPPRLPRPRPRPRLTPRP | -0.0882
125 | RRIRERPPRLPRPRPRPRMGPRP | -0.173

Row | Sequence | shrunken log2 fold change
126 | RRIRERPPRLPRPRPRPRMIPRP | -0.0503
127 | RRIRERPPRLPRPRPRPRPNPRP | 0.451
128 | RRIRERPPRLPRPRPRPRPWPRP | 0.298
129 | RRIRERPPRLPRPRPRPRPYPRP | -0.0326
130 | RRIRERPPRLPRPRPRPRREPRP | 0.0467
131 | RRIRERPPRLPRPRPRPRRPPRP | 0.27
132 | RRIRERPPRLPRPRPRPRRRPRP | 0.261
133 | RRIRERPPRLPRPRPRPRSTPRP | -0.259
134 | RRIRERPPRLPRPRPRPRTAPRP | 0.131
135 | RRIRERPPRLPRPRPRPRTDPRP | 0.193
136 | RRIRERPPRLPRPRPRPRTKPRP | 0.175
137 | RRIRERPPRLPRPRPRPSAMPRP | -0.279
138 | RRIRERPPRLPRPRPRPSDYPRP | -0.627
139 | RRIRERPPRLPRPRPRPSEHPRP | -0.0752
140 | RRIRERPPRLPRPRPRPSEKPRP | -0.0759
141 | RRIRERPPRLPRPRPRPSHFPRP | 0.000406
142 | RRIRERPPRLPRPRPRPSHVPRP | -2.72
143 | RRIRERPPRLPRPRPRPSIAPRP | -0.259
144 | RRIRERPPRLPRPRPRPSIYPRP | -1
145 | RRIRERPPRLPRPRPRPSLEPRP | -0.199
146 | RRIRERPPRLPRPRPRPSLPPRP | -0.19
147 | RRIRERPPRLPRPRPRPSLRPRP | -0.313
148 | RRIRERPPRLPRPRPRPSLTPRP | -0.699
149 | RRIRERPPRLPRPRPRPSMVPRP | -0.86
150 | RRIRERPPRLPRPRPRPSPQPRP | -0.0688
